Measured values from patent EP4636087A1, “ANTI-GPA33 ANTIBODY AND UTILIZATION THEREOF” (Kagoshima University, priority 2022, dated 2024).

How the values were obtained:
[1] = target: T1, mouse GPA33 expressed on CHO-K1 cells (mGPA33-expressing cells) (mouse, UniProt Q9JKA5 22-319); assay: FACS, 0.1 µg scFv on GPA33-expressing CHO-K1 cells, anti-His-biotin and SA-PE detection
T1 construct: whole, on cells
T1 sequence (looked up): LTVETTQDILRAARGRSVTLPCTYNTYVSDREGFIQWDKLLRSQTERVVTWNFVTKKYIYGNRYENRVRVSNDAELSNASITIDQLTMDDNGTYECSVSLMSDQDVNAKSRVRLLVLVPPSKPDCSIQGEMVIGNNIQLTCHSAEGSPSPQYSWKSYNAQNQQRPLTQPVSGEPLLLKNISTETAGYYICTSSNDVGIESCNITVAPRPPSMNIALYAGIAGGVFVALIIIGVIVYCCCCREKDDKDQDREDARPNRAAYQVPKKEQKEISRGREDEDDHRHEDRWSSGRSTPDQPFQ

[2] = target: T2, human GPA33 expressed on CHO-K1 cells (hGPA33-expressing cells co-expressing GFP) (human, UniProt Q99795 22-319); assay: as above
T2 construct: whole, on cells; CHO-K1 transfected with an hGPA33 expression vector (ORIGENE) co-expressing GFP
T2 sequence (looked up): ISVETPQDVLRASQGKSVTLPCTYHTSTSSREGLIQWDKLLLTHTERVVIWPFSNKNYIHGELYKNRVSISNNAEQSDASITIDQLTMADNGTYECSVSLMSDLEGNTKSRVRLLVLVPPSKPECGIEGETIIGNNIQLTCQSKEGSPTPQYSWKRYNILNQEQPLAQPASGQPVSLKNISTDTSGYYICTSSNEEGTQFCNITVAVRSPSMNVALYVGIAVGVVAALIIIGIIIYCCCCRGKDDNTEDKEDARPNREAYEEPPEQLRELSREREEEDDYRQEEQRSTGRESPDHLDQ

[3] = target: T3, human GPA33 expressed on HEK293STF cells (EGFP-human GPA33 expression vector, ORIGENE RG210225) (human, UniProt Q99795 22-319); assay: cell-based or functional assay
T3 sequence (looked up): T2 sequence (looked up)

[4] = target: T1, mouse GPA33 expressed on CHO-K1 cells …; assay: FACS, cloned phage on GPA33-expressing CHO-K1 cells
[5] = target: T2, human GPA33 expressed on CHO-K1 cells …; assay: as above
[6] = target: T4, mouse GPA33 recombinant protein (C-terminal His tag fusion protein, abcam) (mouse, UniProt Q9JKA5 22-235, limits assumed); assay: SPR, Biacore T200, 25°C, GPA33-His amine-coupled on CM5, scFv-Fc as analyte, 1:1 binding model
T4 construct: Bought recombinant protein (abcam); also called mGPA33
T4 sequence (looked up): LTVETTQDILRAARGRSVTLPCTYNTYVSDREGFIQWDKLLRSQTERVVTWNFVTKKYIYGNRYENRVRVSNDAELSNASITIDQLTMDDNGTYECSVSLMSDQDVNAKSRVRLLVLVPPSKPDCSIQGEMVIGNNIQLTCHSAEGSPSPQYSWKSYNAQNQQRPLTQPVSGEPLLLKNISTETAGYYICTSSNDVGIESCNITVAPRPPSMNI

[7] = target: T5, human GPA33 recombinant protein (C-terminal His tag fusion protein, abcam) (human, UniProt Q99795 22-235, limits assumed); assay: as above
T5 construct: Bought recombinant protein (abcam); also called hGPA33
T5 sequence (looked up): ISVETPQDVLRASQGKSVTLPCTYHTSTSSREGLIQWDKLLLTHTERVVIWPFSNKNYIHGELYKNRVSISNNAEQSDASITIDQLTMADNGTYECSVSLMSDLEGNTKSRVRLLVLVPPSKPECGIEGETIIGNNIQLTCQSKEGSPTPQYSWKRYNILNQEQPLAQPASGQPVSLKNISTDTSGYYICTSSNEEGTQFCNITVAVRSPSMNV

B1: 2RC28-Cys anti-GPA33 scFv (Cys-containing sequence, His tag and Myc tag at the C-terminal side), expressed in Escherichia coli (scFv)
scFv: EVQLVESGGGLVKPGGSLRLSCAASGFTFSSYSMNWVRQAPGKGLEWVSSISRDSTYIYYADSVKGRFTISRDNAKNSLYLQMNSLRAEDTAVYYCAREGVAGAFDIWGQGTMVTVSSGGGGSGGGGSGSTGSAIQLTQSPSSLSASVGDRVTITCRASQSISSYLNWYQQKPGKAPKLLIYIASSLQSGVPSRFSGSGSGTDFTLTISSLQPEDFATYYCQQSYNTWTFGQGTKVEIKAACTSAHHHHHHGAAEQKLISEEDLNGAA
notes: Periplasmic expression in E. coli HB2151, purified on a His tag column; also called 2RC28 scFv; anti-GPA33 single chain Fv-His
B1: binds [1]; binds [2].

B2: G17-R2CRD-His (other)
chain: QMQLVQSGGGLVKPGGSLRLSCAASGFTFSSYNMNWVRQAPGKGLEWVSSISSSGDFMYYADSVKGRFTISRDNAKNSLYLQMSSLRAEDTAVYYCAREGPGTPFDYWGQGTLVTVSSGGGGSGGGGSGSTGSAIQLTQSPSSLSASVGDRVTITCRASQSISSFLNWYQHKPGKAPKLLIYVASSLQSGVPSRFSGSGSGTDFTLTISSLQPEDFATYYCQQSHNTPYTFGQGTKLEIKGGGGSGGGGSGGGGSNPICKGCLSCSKDNGCSRCQQKLFFFLRREGMRQYGECLHSCPSGYYGHRAPDMNRCARCRIENCDSCFSKDFCTKCKVGFYLHRGRCFDECPDGFAPLEETMECVEGHHHHHHGA
With B2 the “EC50(GPA33) (nM), Wnt/β-catenin reporter in 293STF cells expressing GPA33” value (shortened to “EC50(GPA33) (nM), Wnt/β-catenin reporter”) [3] was 0.021 nM and the “EC50(MOG)/ EC50(GPA33)” value [3] was 15.2.

B3: G17-R1CRD-GS3-Fcm (Fc fusion)
chain: QMQLVQSGGGLVKPGGSLRLSCAASGFTFSSYNMNWVRQAPGKGLEWVSSISSSGDFMYYADSVKGRFTISRDNAKNSLYLQMSSLRAEDTAVYYCAREGPGTPFDYWGQGTLVTVSSGGGGSGGGGSGSTGSAIQLTQSPSSLSASVGDRVTITCRASQSISSFLNWYQHKPGKAPKLLIYVASSLQSGVPSRFSGSGSGTDFTLTISSLQPEDFATYYCQQSHNTPYTFGQGTKLEIKGGSGGSISAEGSQACAKGCELCSEVNGCLKCSPKLFILLERNDIRQVGVCLPSCPPGYFDARNPDMNKCIKCKIEHCEACFSHNFCTKCKEGLYLHKGRCYPACPEGSSAANGTMECSSGGGGSGGGGSGGGGSEPKSADKTHTCPPCPAPEAEGAPSVFLFPPKPKDTLMISRTPEVTCVVVDVSHEDPEVKFNWYVDGVEVHNAKTKPREEQYNSTYRVVSVLTVLHQDWLNGKEYKCAVSNKALPASIEKTISKAKGQPREPQVYTLPPSREEMTKNQVSLTCLVKGFYPSDIAVEWESNGQPENNYKTTPPVLDSDGSFFLYSKLTVDKSRWQQGNVFSCSVMHEALHNHYTQKSLSLSPGK
For B3, the “EC50(GPA33) (nM), Wnt/β-catenin reporter” value [3] was 0.054 nM and the “EC50(MOG)/ EC50(GPA33)” value [3] was over 556.

B4: GPA33-2RC28 cloned scFv phage (scFv)
scFv: EVQLVESGGGLVKPGGSLRLSCAASGFTFSSYSMNWVRQAPGKGLEWVSSISRDSTYIYYADSVKGRFTISRDNAKNSLYLQMNSLRAEDTAVYYCAREGVAGAFDIWGQGTMVTVSSGGGGSGGGGSGSTGSAIQLTQSPSSLSASVGDRVTITCRASQSISSYLNWYQQKPGKAPKLLIYIASSLQSGVPSRFSGSGSGTDFTLTISSLQPEDFATYYCQQSYNTWTFGQGTKVEIK
B4: binds [4]; binds [5].

B5: GPA33-2RC17 cloned scFv phage (scFv)
scFv: QMQLVQSGGGLVKPGGSLRLSCAASGFTFSSYNMNWVRQAPGKGLEWVSSISSSGDFMYYADSVKGRFTISRDNAKNSLYLQMSSLRAEDTAVYYCAREGPGTPFDYWGQGTLVTVSSGGGGSGGGGSGSTGSAIQLTQSPSSLSASVGDRVTITCRASQSISSFLNWYQHKPGKAPKLLIYVASSLQSGVPSRFSGSGSGTDFTLTISSLQPEDFATYYCQQSHNTPYTFGQGTKLEIK
notes: also called G17
B5: binds [4]; binds [5].

B6: G17-R4CRD-His (other)
chain: QMQLVQSGGGLVKPGGSLRLSCAASGFTFSSYNMNWVRQAPGKGLEWVSSISSSGDFMYYADSVKGRFTISRDNAKNSLYLQMSSLRAEDTAVYYCAREGPGTPFDYWGQGTLVTVSSGGGGSGGGGSGSTGSAIQLTQSPSSLSASVGDRVTITCRASQSISSFLNWYQHKPGKAPKLLIYVASSLQSGVPSRFSGSGSGTDFTLTISSLQPEDFATYYCQQSHNTPYTFGQGTKLEIKGGSGGSGGNCTGCIICSEENGCSTCQQRLFLFIRREGIRQYGKCLHDCPPGYFGIRGQEVNRCKKCGATCESCFSQDFCIRCKRQFYLYKGKCLPTCPPGTLAHQNTRECQGHHHHHHGA
In the case of B6, the “EC50(GPA33) (nM), Wnt/β-catenin reporter” value [3] is reported as 0.008 nM and the “EC50(MOG)/ EC50(GPA33)” value [3] is reported as 348.

B7: GPA2RC17-Fc (anti-GPA33 single-chain Fv-Fc, scFv linked to human IgG1-Fc) (Fc fusion)
chain: QMQLVQSGGGLVKPGGSLRLSCAASGFTFSSYNMNWVRQAPGKGLEWVSSISSSGDFMYYADSVKGRFTISRDNAKNSLYLQMSSLRAEDTAVYYCAREGPGTPFDYWGQGTLVTVSSGGGGSGGGGSGSTGSAIQLTQSPSSLSASVGDRVTITCRASQSISSFLNWYQHKPGKAPKLLIYVASSLQSGVPSRFSGSGSGTDFTLTISSLQPEDFATYYCQQSHNTPYTFGQGTKLEIKPKSSDKTHTCPPCPAPEAEGAPSVFLFPPKPKDTLMISRTPEVTCVVVDVSHEDPEVKFNWYVDGVEVHNAKTKPREEQYNSTYRVVSVLTVLHQDWLNGKEYKCAVSNKALPASIEKTISKAKGQPREPQVYTLPPSREEMTKNQVSLTCLVKGFYPSDIAVEWESNGQPENNYKTTPPVLDSDGSFFLYSKLTVDKSRWQQGNVFSCSVMHEALHNHYTQKSLSLSPGK
notes: also called 2RC17 scFv-Fc; 2RC17-scFv-Fc
For B7, the Kd [6] was 3.8 nM and the Kd [7] was 1.4 nM.

B8: GPA2RC28-Fc (anti-GPA33 single-chain Fv-Fc, scFv linked to human IgG1-Fc) (Fc fusion)
chain: EVQLVESGGGLVKPGGSLRLSCAASGFTFSSYSMNWVRQAPGKGLEWVSSISRDSTYIYYADSVKGRFTISRDNAKNSLYLQMNSLRAEDTAVYYCAREGVAGAFDIWGQGTMVTVSSGGGGSGGGGSGSTGSAIQLTQSPSSLSASVGDRVTITCRASQSISSYLNWYQQKPGKAPKLLIYIASSLQSGVPSRFSGSGSGTDFTLTISSLQPEDFATYYCQQSYNTWTFGQGTKVEIKPKSSDKTHTCPPCPAPEAEGAPSVFLFPPKPKDTLMISRTPEVTCVVVDVSHEDPEVKFNWYVDGVEVHNAKTKPREEQYNSTYRVVSVLTVLHQDWLNGKEYKCAVSNKALPASIEKTISKAKGQPREPQVYTLPPSREEMTKNQVSLTCLVKGFYPSDIAVEWESNGQPENNYKTTPPVLDSDGSFFLYSKLTVDKSRWQQGNVFSCSVMHEALHNHYTQKSLSLSPGK
notes: also called 2RC28 scFv-Fc; 2RC28 single-chain Fv-Fc
Work on B8 yielded a Kd [6] of 6.9 nM and a Kd [7] of 5.7 nM.

B9: R1CRD-G17-His (other)
chain: ISAEGSQACAKGCELCSEVNGCLKCSPKLFILLERNDIRQVGVCLPSCPPGYFDARNPDMNKCIKCKIEHCEACFSHNFCTKCKEGLYLHKGRCYPACPEGSSAANGTMECSSGGGGSGGGGSGGGGSQMQLVQSGGGLVKPGGSLRLSCAASGFTFSSYNMNWVRQAPGKGLEWVSSISSSGDFMYYADSVKGRFTISRDNAKNSLYLQMSSLRAEDTAVYYCAREGPGTPFDYWGQGTLVTVSSGGGGSGGGGSGSTGSAIQLTQSPSSLSASVGDRVTITCRASQSISSFLNWYQHKPGKAPKLLIYVASSLQSGVPSRFSGSGSGTDFTLTISSLQPEDFATYYCQQSHNTPYTFGQGTKLEIKHHHHHHGA
B9 was tested, and the “EC50(GPA33) (nM), Wnt/β-catenin reporter” value [3] was 0.027 nM and the “EC50(MOG)/ EC50(GPA33)” value [3] was 307.

B10: G17-R1CRD-His (other)
chain: QMQLVQSGGGLVKPGGSLRLSCAASGFTFSSYNMNWVRQAPGKGLEWVSSISSSGDFMYYADSVKGRFTISRDNAKNSLYLQMSSLRAEDTAVYYCAREGPGTPFDYWGQGTLVTVSSGGGGSGGGGSGSTGSAIQLTQSPSSLSASVGDRVTITCRASQSISSFLNWYQHKPGKAPKLLIYVASSLQSGVPSRFSGSGSGTDFTLTISSLQPEDFATYYCQQSHNTPYTFGQGTKLEIKGGSGGSISAEGSQACAKGCELCSEVNGCLKCSPKLFILLERNDIRQVGVCLPSCPPGYFDARNPDMNKCIKCKIEHCEACFSHNFCTKCKEGLYLHKGRCYPACPEGSSAANGTMECSSPAHHHHHHGA
For B10, the “EC50(GPA33) (nM), Wnt/β-catenin reporter” value [3] was 0.031 nM and the “EC50(MOG)/ EC50(GPA33)” value [3] was 968.
